Columns and labels:
[1] = tested on: PDCD4; test: EMSA; settings: 0.2-1.2 uM protein; fluorescein-12-UTP incorporated about every 20-25 nt; 150 mM NaCl, 20 mM HEPES (pH not stated), 1.5 mM MgCl2, 0.1 mM EDTA, 0.75 mM DTT, 10% glycerol; 2.3 nM labelled RNA; on ice 20 min; 1% native agarose gel
[2] = tested on: eIF3F; test: EMSA; settings: 0.4-2.6 uM protein; fluorescein-12-UTP incorporated about every 20-25 nt; 150 mM NaCl, 20 mM HEPES (pH not stated), 1.5 mM MgCl2, 0.1 mM EDTA, 0.75 mM DTT, 10% glycerol; 2.3 nM labelled RNA; on ice 20 min; 1% native agarose gel

## Bcl-xL IRES RNA
[1]
  Kd: 400 nM
[2]
  Kd: 800 nM

— paper PMC13163806
